Reference: patent US20020058247A1 (TRIPEP, published 2002)

B1: LSCKASGYIFTS (SEQ. ID. No. 46) (peptide)
peptide: LSCKASGYIFTS
B2: KLSCKASGYIFTS (SEQ. ID. No. 45) (peptide)
peptide: KLSCKASGYIFTS
B3: EQGLEWIGWIFPGEGSTEYN (SEQ. ID. No. 8) (peptide)
peptide: EQGLEWIGWIFPGEGSTEYN
notes: also called Peptide # 5
B4: SSYSYMHWY (SEQ. ID. No. 63) (peptide)
peptide: SSYSYMHWY
B5: DYYRRYFDLWGQGTTVTVS (SEQ. ID. No. 14) (peptide)
peptide: DYYRRYFDLWGQGTTVTVS
notes: also called Peptide # 11
B6: YDIDWVRQTPEQGLEWIGWI (SEQ. ID. No. 7) (peptide)
peptide: YDIDWVRQTPEQGLEWIGWI
notes: also called Peptide # 4
B7: SQSVSTSSYSYMHWY (SEQ. ID. No. 57) (peptide)
peptide: SQSVSTSSYSYMHWY
B8: TSSYSYMHWYQQKPGQPPKL (SEQ. ID. No. 18) (peptide)
peptide: TSSYSYMHWYQQKPGQPPKL
B9: VSTSSYSYMHWY (SEQ. ID. No. 60) (peptide)
peptide: VSTSSYSYMHWY
B10: CKASGYIFTS (SEQ. ID. No. 48) (peptide)
peptide: CKASGYIFTS
B11: PVEEEDTATYYCQHSWEIPY (SEQ. ID. No. 23) (peptide)
peptide: PVEEEDTATYYCQHSWEIPY
notes: also called Peptide # 20
B12: GKSLEWIGNINPYYGSTSYN (SEQ. ID. No. 31) (peptide)
peptide: GKSLEWIGNINPYYGSTSYN
notes: also called Peptide # 28
B13: QLNSLTSEDSAVYYCARGKG (SEQ. ID. No. 35) (peptide)
peptide: QLNSLTSEDSAVYYCARGKG
notes: also called Peptide # 32
B14: SYMHWY (SEQ. ID. No. 65) (peptide)
peptide: SYMHWY
B15: SYSYMHWY (printed with SEQ. ID. No. 63, a number already used for …) (peptide)
peptide: SYSYMHWY
B16: TFGGGTKLEIKRADAAPAV (SEQ. ID. No. 25) (peptide)
peptide: TFGGGTKLEIKRADAAPAV
notes: also called Peptide # 22
B17: SCRASQSVSTSSYSYMHWY (SEQ. ID. No. 53) (peptide)
peptide: SCRASQSVSTSSYSYMHWY
B18: AVYFCARGDYDYYRRYFDLW (SEQ. ID. No. 13) (peptide)
peptide: AVYFCARGDYDYYRRYFDLW
notes: also called Peptide # 10
B19: YSYMHWY (SEQ. ID. No. 64) (peptide)
peptide: YSYMHWY
B20: LVTVSAAKTTPPSVYPLVPV (SEQ. ID. No. 38) (peptide)
peptide: LVTVSAAKTTPPSVYPLVPV
notes: also called Peptide # 35
B21: SVSTSSYSYMHWY (SEQ. ID. No. 59) (peptide)
peptide: SVSTSSYSYMHWY
B22: ASQSVSTSSYSYMHWY (SEQ. ID. No. 56) (peptide)
peptide: ASQSVSTSSYSYMHWY
B23: LIKYASNLESGVPARFSGSG (SEQ. ID. No. 20) (peptide)
peptide: LIKYASNLESGVPARFSGSG
B24: GVPARFSGSGSGTDFTLNIH (SEQ. ID. No. 21) (peptide)
peptide: GVPARFSGSGSGTDFTLNIH
B25: ELTRLTSEDSAVYFCARGDY (SEQ. ID. No. 12) (peptide)
peptide: ELTRLTSEDSAVYFCARGDY
notes: also called Peptide # 9
B26: GYIFTS (SEQ. ID. No. 52) (peptide)
peptide: GYIFTS
B27: KRADAAPAVSIFPPSSKLG (SEQ. ID. No. 26) (peptide)
peptide: KRADAAPAVSIFPPSSKLG
notes: also called Peptide # 23
B28: KPGASVKLSCKASGYIFTS (SEQ. ID. No. 39) (peptide)
peptide: KPGASVKLSCKASGYIFTS
B29: SGYIFTS (SEQ. ID. No. 51) (peptide)
peptide: SGYIFTS
B30: PGASVKLSCKASGYIFTS (SEQ. ID. No. 40) (peptide)
peptide: PGASVKLSCKASGYIFTS
B31: IQLQQSGAELVKPGASVKIS (SEQ. ID. No. 27) (peptide)
peptide: IQLQQSGAELVKPGASVKIS
notes: also called Peptide # 24
B32: CKASGYIFTSYDIDWVRQTP (SEQ. ID. No. 6) (peptide)
peptide: CKASGYIFTSYDIDWVRQTP
notes: also called Peptide # 3
B33: NPYYGSTSYNQKFKGKATLT (SEQ. ID. No. 32) (peptide)
peptide: NPYYGSTSYNQKFKGKATLT
notes: also called Peptide # 29
B34: QSVSTSSYSYMHWY (SEQ. ID. No. 58) (peptide)
peptide: QSVSTSSYSYMHWY
B35: EKFKGRATLSVDKSSSTAYM (SEQ. ID. No. 10) (peptide)
peptide: EKFKGRATLSVDKSSSTAYM
notes: also called Peptide # 7
B36: CRASQSVSTSSYSYMHWY (SEQ. ID. No. 54) (peptide)
peptide: CRASQSVSTSSYSYMHWY
B37: GASVKLSCKASGYIFTS (SEQ. ID. No. 41) (peptide)
peptide: GASVKLSCKASGYIFTS
B38: QKFKGKATLTVDKSSSTAYM (SEQ. ID. No. 33) (peptide)
peptide: QKFKGKATLTVDKSSSTAYM
notes: also called Peptide # 30
B39: VDKSSSTAYMELTRLTSEDS (SEQ. ID. No. 11) (peptide)
peptide: VDKSSSTAYMELTRLTSEDS
notes: also called Peptide # 8
B40: ASGYIFTS (SEQ. ID. No. 50) (peptide)
peptide: ASGYIFTS
B41: ASVKLSCKASGYIFTS (SEQ. ID. No. 42) (peptide)
peptide: ASVKLSCKASGYIFTS
B42: VKLQQSGTEVVKPGASVKLS (SEQ. ID. No. 4) (peptide)
peptide: VKLQQSGTEVVKPGASVKLS
notes: also called Peptide # 1
B43: FPGEGSTEYNEKFKGRATLS (SEQ. ID. No. 9) (peptide)
peptide: FPGEGSTEYNEKFKGRATLS
notes: also called Peptide # 6
B44: VDKSSSTAYMQLNSLTSEDS (SEQ. ID. No. 34) (peptide)
peptide: VDKSSSTAYMQLNSLTSEDS
notes: also called Peptide # 31
B45: YCQHSWEIPYTFGGGTKLEI (SEQ. ID. No. 24) (peptide)
peptide: YCQHSWEIPYTFGGGTKLEI
notes: also called Peptide # 21
B46: SCKASGYIFTS (SEQ. ID. No. 47) (peptide)
peptide: SCKASGYIFTS
B47: TGFAYWGQGTLVTVSAAKTT (SEQ. ID. No. 37) (peptide)
peptide: TGFAYWGQGTLVTVSAAKTT
notes: also called Peptide # 34
B48: AVYYCARGKGTGFAYWGQGT (SEQ. ID. No. 36) (peptide)
peptide: AVYYCARGKGTGFAYWGQGT
notes: also called Peptide # 33
B49: KASGYIFTS (SEQ. ID. No. 49) (peptide)
peptide: KASGYIFTS
B50: SVKLSCKASGYIFTS (SEQ. ID. No. 43) (peptide)
peptide: SVKLSCKASGYIFTS
B51: STSSYSYMHWY (SEQ. ID. No. 61) (peptide)
peptide: STSSYSYMHWY
B52: SGTDFTLNIHPVEEEDTATY (SEQ. ID. No. 22) (peptide)
peptide: SGTDFTLNIHPVEEEDTATY
B53: TSSYSYMHWY (SEQ. ID. No. 62) (peptide)
peptide: TSSYSYMHWY
B54: VKLSCKASGYIFTS (SEQ. ID. No. 44) (peptide)
peptide: VKLSCKASGYIFTS

Experiments:
[1] = molecular target: T1, Full length recombinant HBcAg (rHBcAg) encompassing residues 1-183 (hepatitis B virus, UniProt P03146 1-183); assay: EIA, support-bound peptide, HBcAg 5 ug/ml
T1 construct: range 1-183; also called hepatitis B virus core antigen
T1 sequence (P03146 whole entry, the tested form may be a part): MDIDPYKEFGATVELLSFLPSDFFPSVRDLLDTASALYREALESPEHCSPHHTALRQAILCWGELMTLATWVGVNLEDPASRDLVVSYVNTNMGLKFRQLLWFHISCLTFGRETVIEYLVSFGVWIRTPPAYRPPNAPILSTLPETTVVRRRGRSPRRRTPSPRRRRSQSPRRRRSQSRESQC

[2] = molecular target: T1, Full length recombinant HBcAg (rHBcAg) …; assay: competition EIA, peptide added to HBcAg before mAb 4-2 (competitor); OD of bound mAb
[3] = molecular target: T1, Full length recombinant HBcAg (rHBcAg) …; assay: EIA, support-bound peptide, HBcAg 2 ug/well
[4] = molecular target: T2, non-structural 3 protein (NS3) of the hepatitis C virus (HCV) (hepatitis C virus); assay: EIA, support-bound peptide, HCV NS3 control
T2 construct: Control antigen; also called HCV NS3

[5] = molecular target: T1, Full length recombinant HBcAg (rHBcAg) …; assay: EIA, support-bound peptide, HBcAg 0.2 ug/well

| Binder | OD at 490 nm [1] [OD] | OD at 490 nm [2] [OD] | OD at 405 nm [3] [OD] | OD at 405 nm [4] [OD] | OD at 405 nm [5] [OD] |
| --- | --- | --- | --- | --- | --- |
| B1 | 0.565 | 0.777 | – | – | – |
| B2 | 3.69 | 0.808 | – | – | – |
| B3 | – | – | 0.706 | 0.182 | 0.256 |
| B4 | 0.311 | – | – | – | – |
| B5 | – | – | 0.356 | 0.022 | 0.133 |
| B6 | – | – | – | 0.089 | – |
| B7 | 0.31 | – | – | – | – |
| B8 | – | – | 1.44 | 0.028 | 0.574 |
| B9 | 0.369 | – | – | – | – |
| B10 | 0.255 | 0.851 | – | – | – |
| B11 | – | – | 0.625 | 0.124 | 0.207 |
| B12 | – | – | 0.289 | 0.028 | 0.114 |
| B13 | – | – | – | 0.035 | – |
| B14 | 0.218 | – | – | – | – |
| B15 | 0.283 | – | – | – | – |
| B16 | – | – | 0.273 | 0.024 | 0.084 |
| B17 | 1.45 | – | – | – | – |
| B18 | – | – | 0.981 | 0.038 | 0.304 |
| B19 | 0.245 | – | – | – | – |
| B20 | – | – | – | 0.032 | – |
| B21 | 0.305 | – | – | – | – |
| B22 | 0.324 | – | – | – | – |
| B23 | – | – | 0.357 | 0.02 | 0.112 |
| B24 | – | – | 0.409 | 0.027 | 0.141 |
| B25 | – | – | – | 0.073 | – |
| B26 | 0.414 | 0.903 | – | – | – |
| B27 | – | – | 0.465 | 0.021 | 0.162 |

| Binder | OD at 490 nm [1] [OD] | OD at 490 nm [2] [OD] | OD at 405 nm [3] [OD] | OD at 405 nm [4] [OD] | OD at 405 nm [5] [OD] |
| --- | --- | --- | --- | --- | --- |
| B28 | 1.34 | 0.202 | – | – | – |
| B29 | 0.389 | 0.887 | – | – | – |
| B30 | 1.72 | 0.182 | – | – | – |
| B31 | – | – | 0.369 | 0.021 | 0.123 |
| B32 | – | – | – | 0.032 | – |
| B33 | – | – | 0.783 | 0.021 | 0.213 |
| B34 | 0.282 | – | – | – | – |
| B35 | – | – | 0.883 | 0.035 | 0.194 |
| B36 | 1.42 | – | – | – | – |
| B37 | 2.86 | 0.205 | – | – | – |
| B38 | – | – | 1.11 | 0.035 | 0.207 |
| B39 | – | – | 0.363 | 0.041 | 0.134 |
| B40 | 0.407 | 0.92 | – | – | – |
| B41 | 3.22 | 0.207 | – | – | – |
| B42 | – | – | 0.323 | 0.021 | 0.124 |
| B43 | – | – | 0.325 | 0.109 | 0.121 |
| B44 | – | – | 0.338 | 0.106 | 0.114 |
| B45 | – | – | 0.498 | 0.052 | 0.173 |
| B46 | 0.297 | 0.784 | – | – | – |
| B47 | – | – | 0.898 | 0.035 | 0.192 |
| B48 | – | – | 1.2 | 0.035 | 0.227 |
| B49 | 0.237 | 0.866 | – | – | – |
| B50 | 3.36 | 0.175 | – | – | – |
| B51 | 0.372 | – | – | – | – |
| B52 | – | – | 0.649 | 0.206 | 0.205 |
| B53 | 0.317 | – | – | – | – |
| B54 | 3.7 | 0.152 | – | – | – |
